± gives the standard deviation of the averaged measurements.
Assays:
Saccharomyces cerevisiae [1] = test: protein stability index of tFT-peptide fusion (C-terminal peptide) (PSI (0-1 scale)); higher = more stable (slower turnover); conditions: genetic background: wild type; temperature: 30 C
Saccharomyces cerevisiae [2] = test: as above
Experimental: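 MPS profiling in S. cerevisiae of the tFT-X12 degron library: putative degron peptides plus stable controls, 12 aa, fused to the C-terminus of a sfGFP-mCherry timer. Cells are FACS-sorted into 8 mCherry/sfGFP bins and deep-sequenced. PSI runs from 0 (unstable) to 1 (stable). Backgrounds are wild type, das1Δ and doa10Δ at 30 °C, and wild type, das1Δ, cdc34-1 and cdc53-1 at 37 °C; 2-3 technical replicates each.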

[3] = genetic background: cdc34-1, temperature: 37 C
[4] = genetic background: cdc53-1, temperature: 37 C
[5] = genetic background: das1 deletion, temperature: 30 C
[6] = genetic background: das1 deletion, temperature: 37 C
[7] = genetic background: doa10 deletion, temperature: 30 C
[8] = genetic background: wild type, temperature: 30 C
[9] = genetic background: wild type, temperature: 37 C
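Also: PSI is a weighted mean of sequencing reads over stability bins, variants kept only with over 10 reads, mCherry proximal and sfGFP distal, peptide attached via GGGS linker.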

Row | Sequence | protein stability index (Saccharomyces cerevisiae [1]) | protein stability index (Saccharomyces cerevisiae [2]; [3]) | protein stability index (Saccharomyces cerevisiae [2]; [4]) | protein stability index (Saccharomyces cerevisiae [2]; [5]) | protein stability index (Saccharomyces cerevisiae [2]; [6]) | protein stability index (Saccharomyces cerevisiae [2]; [7]) | protein stability index (Saccharomyces cerevisiae [2]; [8]) | protein stability index (Saccharomyces cerevisiae [2]; [9])
1 | WLCWVVWFPGLF | 0.244 ± 0.035 | 0.395 ± 0.035 | 0.509 ± 0.028 | 0.369 ± 0.032 | 0.541 ± 0.012 | 0.1615 ± 0.00068 | 0.171 ± 0.012 | 0.297 ± 0.015
2 | ILFWSLLVSTIR | 0.177 ± 0.082 | 0.13 ± 0.031 | 0.223 ± 0.056 | 0.174 ± 0.034 | 0.263 ± 0.0027 | 0.137 ± 0.017 | 0.149 ± 0.035 | 0.266 ± 0.004
3 | LVGWSWRGWFVV | 0.139 ± 0.025 | 0.512 ± 0.029 | 0.6899 ± 0.0065 | 0.6201 ± 0.0015 | 0.769 ± 0.015 | 0.0763 ± 0.011 | 0.094 ± 0.029 | 0.112 ± 0.012
4 | CVFGFACRVLVV | 0.338 ± 0.017 | 0.288 ± 0.012 | 0.32639 ± 4.3e-05 | 0.281 ± 0.031 | 0.407 ± 0.0012 | 0.241 ± 0.011 | 0.278 ± 0.02 | 0.364 ± 0.01
5 | LFLIYCFAFSIG | 0.367 ± 0.049 | 0.258 ± 0.083 | 0.328 ± 0.032 | 0.22 ± 0.034 | 0.4171 ± 0.00091 | 0.194 ± 0.02 | 0.239 ± 0.021 | 0.366 ± 0.014
6 | RRIILAGLFLIS | 0.403 ± 0.0097 | 0.586 ± 0.028 | 0.613 ± 0.029 | 0.437 ± 0.033 | 0.623 ± 0.046 | 0.332 ± 0.021 | 0.353 ± 0.014 | 0.537 ± 0.0093
7 | SYALGNVVGGSL | 0.72 ± 0.013 | 0.675 ± 0.045 | 0.75 ± 0.015 | 0.637 ± 0.018 | 0.748 ± 0.014 | 0.631 ± 0.025 | 0.645 ± 0.0065 | 0.721 ± 0.022
8 | VCLVAGVFFCLL | 0.629 ± 0.24 | 0.5 ± 0.018 | 0.587 ± 0.025 | 0.44 ± 0.018 | 0.638 ± 0.021 | 0.422 ± 0.017 | 0.449 ± 0.014 | 0.575 ± 0.013
9 | GAVRRWGGVSFV | 0.259 ± 0.068 | 0.626 ± 0.041 | 0.707 ± 0.026 | 0.643 ± 0.011 | 0.707 ± 0.032 | 0.662 ± 0.028 | 0.664 ± 0.0068 | 0.679 ± 0.015
